Data reported in patent US20220175781A1, “CD40L COMPOSITIONS AND METHODS FOR TUNABLE REGULATION” (Obsidian Therapeutics, Inc., priority 2019, published 2022).
Substitutions are numbered along the chain they refer to. Several values for one entry are separate records, joined by “and”; a condition that tells them apart may be missing. Equal entries are not always repeated.

Key:
[1] = system: Jurkat cells; assay: CD40L shedding ELISA of supernatant, Jurkat cells with or without CD40-Fc receptor; assay type: cell-based; design: CD40L levels in supernatant: unit not given here; conditions: 6 hours
Method: Sheddases e.g. ADAM10/17 present in the tumor microenvironment can cleave CD40L thereby preventing the successful activation of CD40 by CD40L. […] OT-001669 which has a deletion of amino acids 1-13 of CD40L was designed to reduce internalization and OT-001668 which has a deletion of amino acids 110-116 of CD40L was designed to remove the ADAM10/17 sites. Jurkat cells stably expressing the full length construct OT-001661, OT-001669, or OT-001668 were cultured for 6 hours with 1.25 μg/ml recombinant human (h) or mouse (m) CD40-Fc receptor or left untreated and tested using an ELISA assay (Table 15).

[2] = system: Jurkat cells; assay: Linker length, ER regulated CD40L, % CD40L positive Jurkat cells; assay type: cell-based
Method: Jurkat cells were lentivirally transduced and 24 hours after transduction were treated with DMSO or 1 μM Bazedoxifene for another 24 hours and analyzed by flow cytometry for surface expression of CD40L. […] In Table 33, SR indicates stabilization ratio.

[3] = system: T cells (CD4 and CD8 positive); assay: Bazedoxifene dose response, CD40L MFI in CD4 and CD8 positive T cells (day 4, freeze/thaw, restimulation); assay type: cell-based
Method: Dose response with Bazedoxifene in T cells were conducted for OT-001966, OT-001967, OT-001666. Expression of CD40L was measured at (a) day 4 after transduction, (b) after freezing and thawing the cells or (c) after freezing and thawing the cells followed by restimulation with CD3/CD28 beads. The CD40L MFI (median fluorescence intensity) within CD4 and CD8 positive subpopulations is shown in Table 34 and Table 35 respectively.

[4] = system: HEK293T cells; assay: CD40L-ecDHFR constructs, CD40L surface expression in transfected HEK293T cells; assay type: cell-based, human; conditions: for SR (for % CD40L) / TMP/vehicle ratio of CD40L median fluorescence intensity: TMP (50 μM) versus Vehicle
Method: HEK293T cells were transiently transfected with the constructs in Table 39 (1 μg of DNA). 24 hours after transfection, the media was removed and replaced with fresh medium containing 50 μM TMP or DMSO. Another 24 hours later cells were analyzed by flow cytometry for CD40L surface expression. Table 39 provides CD40L expression as both % CD40L positive cells and the Median fluorescence intensity (MFI) values.

[5] = system: Jurkat cells; assay: In vivo CD40L regulation in Jurkat cells harvested from bone marrow of NSG mice; conditions: for CD40L MFI values / Percent CD40L positive cells: Jurkat cells from bone marrow, day 16
From the text: Jurkat cells stably expressing OT-001661, OT-002034 were intravenously infused into 8-week old NSG mice (20 million cells per mouse). Starting by day 15, mice were orally dosed according to the study design shown in Table 42 and Jurkat cells were harvested on day 16 from the bone marrow and analyzed by FACS. In Tables 41 and 42, TMP refers to Trimethoprim and all dosing is relative to “0 hr” time point on day 16. The results are shown in Table 43 and Table 44 where “EV” refers to empty vector control.

[6] = Jurkat cells from bone marrow of mice treated with TMP versus vehicle control or empty vector
[7] = individual mice, TMP 500 mg/kg 3x oral

B1: OT-001669: CD40L construct with deletion of amino acids 1-13 of CD40L, designed to reduce internalization (protein)
chain: MHATGLPISMKIFMYLLTVFLITQMIGSALFAVYLHRRLDKIEDERNLHEDFVFMKTIQRCNTGERSLSLLNCEEIKSQFEGFVKDIMLNKEETKKENSFEMQKGDQNPQIAAHVISEASSKTTSVLQWAEKGYYTMSNNLVTLENGKQLTVKRQGLYYIYAQVTFCSNREASSQAPFIASLCLKSPGRFERILLRAANTHSSAKPCGQQSIHLGGVFELQPGASVFVNVTDPSQVSHGTGFTSFGLLKL
[1]; 1.25 μg/ml hCD40-Fc
  CD40L levels in supernatant: 8444.30
[1]; 1.25 μg/ml mCD40-Fc
  CD40L levels in supernatant: 4335.76
[1]; 1.25 μg/ml recombinant human CD40-Fc
  shedding of CD40L: enhance the shedding
[1]; Untreated
  CD40L levels in supernatant: 2137.69

B2: OT-001967: ER regulated CD40L construct with varied linker length (protein)
chain: MSLALSLTADQMVSALLDAEPPILYSEYDPTRPFSEASMMGLLTNLADRELVHMINWAKRVPGFVDLTLHDQVHLLECAWMEILMIGLVWRSMEHPGKLLFAPNLLLDRDQGKCVEGGVEIFDMLLATSSRFRMMNLQGEEFVCLKSIILLNSGVYTFLSSTLKSLEEKDHIHRVLDKITDTLIHLMAKAGLTLQQQHQRLAQLLLILSHIRHMSNKRMEHLYSMKCKNVVPLSDLLLEMLDAHRLGSMIETYNQTSPRSAATGLPISMKIFMYLLTVFLITQMIGSALFAVYLHRRLDKIEDERNLHEDFVFMKTIQRCNTGERSLSLLNCEEIKSQFEGFVKDIMLNKEETKKENSFEMQKGDQNPQIAAHVISEASSKTTSVLQWAEKGYYTMSNNLVTLENGKQLTVKRQGLYYIYAQVTFCSNREASSQAPFIASLCLKSPGRFERILLRAANTHSSAKPCGQQSIHLGGVFELQPGASVFVNVTDPSQVSHGTGFTSFGLLKL
[2]; 1 μM Bazedoxifene
  Percent of Jurkat cells expressing CD40L: 30%
[2]; 1 μM Bazedoxifene versus DMSO, % CD40L positive Jurkat cells
  SR: 15
[2]; DMSO
  Percent of Jurkat cells expressing CD40L: 2%
[3]; CD4+ cells, Day 5, Bazedoxifene 0.01 nM
  CD40L expression (MFI): 473
[3]; CD4+ cells, Day 5, Bazedoxifene 0.1 nM
  CD40L expression (MFI): 474
[3]; CD4+ cells, Day 5, Bazedoxifene 1 nM
  CD40L expression (MFI): 483
[3]; CD4+ cells, Day 5, Bazedoxifene 10 nM
  CD40L expression (MFI): 497
[3]; CD4+ cells, Day 5, Bazedoxifene 100 nM
  CD40L expression (MFI): 630
[3]; CD4+ cells, Day 5, Bazedoxifene 1000 nM
  CD40L expression (MFI): 998
[3]; CD4+ cells, Day 5, Bazedoxifene 10000 nM
  CD40L expression (MFI): 1000
[3]; CD4+ cells, Post Thaw, Bazedoxifene 0.01 nM
  CD40L expression (MFI): 156
[3]; CD4+ cells, Post Thaw, Bazedoxifene 0.1 nM
  CD40L expression (MFI): 160
[3]; CD4+ cells, Post Thaw, Bazedoxifene 1 nM
  CD40L expression (MFI): 161
[3]; CD4+ cells, Post Thaw, Bazedoxifene 10 nM
  CD40L expression (MFI): 172
[3]; CD4+ cells, Post Thaw, Bazedoxifene 100 nM
  CD40L expression (MFI): 200
[3]; CD4+ cells, Post Thaw, Bazedoxifene 1000 nM
  CD40L expression (MFI): 223
[3]; CD4+ cells, Post Thaw, Bazedoxifene 10000 nM
  CD40L expression (MFI): 457
[3]; CD4+ cells, Restim, Bazedoxifene 0.01 nM
  CD40L expression (MFI): 913
[3]; CD4+ cells, Restim, Bazedoxifene 0.1 nM
  CD40L expression (MFI): 922
[3]; CD4+ cells, Restim, Bazedoxifene 1 nM
  CD40L expression (MFI): 913
[3]; CD4+ cells, Restim, Bazedoxifene 10 nM
  CD40L expression (MFI): 1131
[3]; CD4+ cells, Restim, Bazedoxifene 100 nM
  CD40L expression (MFI): 1549
[3]; CD4+ cells, Restim, Bazedoxifene 1000 nM
  CD40L expression (MFI): 1232
[3]; CD4+ cells, Restim, Bazedoxifene 10000 nM
  CD40L expression (MFI): 291
[3]; CD8+ cells, Day 5, Bazedoxifene 0.01 nM
  CD40L expression (MFI): 153
[3]; CD8+ cells, Day 5, Bazedoxifene 0.1 nM
  CD40L expression (MFI): 153
[3]; CD8+ cells, Day 5, Bazedoxifene 1 nM
  CD40L expression (MFI): 157
[3]; CD8+ cells, Day 5, Bazedoxifene 10 nM
  CD40L expression (MFI): 158
[3]; CD8+ cells, Day 5, Bazedoxifene 100 nM
  CD40L expression (MFI): 226
[3]; CD8+ cells, Day 5, Bazedoxifene 1000 nM
  CD40L expression (MFI): 424
[3]; CD8+ cells, Day 5, Bazedoxifene 10000 nM
  CD40L expression (MFI): 392
[3]; CD8+ cells, Post Thaw, Bazedoxifene 0.01 nM
  CD40L expression (MFI): 108
[3]; CD8+ cells, Post Thaw, Bazedoxifene 0.1 nM
  CD40L expression (MFI): 105
[3]; CD8+ cells, Post Thaw, Bazedoxifene 1 nM
  CD40L expression (MFI): 108
[3]; CD8+ cells, Post Thaw, Bazedoxifene 10 nM
  CD40L expression (MFI): 114
[3]; CD8+ cells, Post Thaw, Bazedoxifene 100 nM
  CD40L expression (MFI): 149
[3]; CD8+ cells, Post Thaw, Bazedoxifene 1000 nM
  CD40L expression (MFI): 178
[3]; CD8+ cells, Post Thaw, Bazedoxifene 10000 nM
  CD40L expression (MFI): 263
[3]; CD8+ cells, Restim, Bazedoxifene 0.1 nM
  CD40L expression (MFI): 269
[3]; CD8+ cells, Restim, Bazedoxifene 1 nM
  CD40L expression (MFI): 274
[3]; CD8+ cells, Restim, Bazedoxifene 10 nM
  CD40L expression (MFI): 265
[3]; CD8+ cells, Restim, Bazedoxifene 100 nM
  CD40L expression (MFI): 326
[3]; CD8+ cells, Restim, Bazedoxifene 1000 nM
  CD40L expression (MFI): 445
[3]; CD8+ cells, Restim, Bazedoxifene 10000 nM
  CD40L expression (MFI): 372

B3: OT-002035: CD40L-ecDHFR construct of Table 39 (protein)
chain: MSGISLIAALAVDRVIGMENAMPWNLPADLAWFKRNTLNKPVIMGRHTWESIGRPLPGRKNIILSSQPGTDDRVTWVKSVDEAIAACGDVPEIMVIGGGRVREQFLPKAQKLYLTHIDAEVEGDTHFPDYEPDDWESVFSEFHDADAQNSHSYCFEILERRHMIETYNQTSPRSAATGLPISMKIFMYLLTVFLITQMIGSALFAVYLHRRLDKIEDERNLHEDFVFMKTIQRCNTGERSLSLLNCEEIKSQFEGFVKDIMLNKEETKKENSFEMQKGDQNPQIAAHVISEASSKTTSVLQWAEKGYYTMSNNLVTLENGKQLTVKRQGLYYIYAQVTFCSNREASSQAPFIASLCLKSPGRFERILLRAANTHSSAKPCGQQSIHLGGVFELQPGASVFVNVTDPSQVSHGTGFTSFGLLKL
[4]; HEK293T cells, 50 μM TMP or DMSO 24 hours
  TMP mediated expression of CD40L: exception
[4]; TMP (50 μM)
  % CD40L: 23.8%
  MFI (Median): 8311
[4]
  SR (for % CD40L): 0.89
  TMP/vehicle ratio of CD40L median fluorescence intensity: 0.97
[4]; Vehicle
  % CD40L: 26.7%
  MFI (Median): 8535

B4: OT-002034: TMP regulated CD40L construct stably expressed in Jurkat cells (protein)
chain: B3 chain with R102Q
[4]; TMP (50 μM)
  % CD40L: 71.1%
  MFI (Median): 20569
[4]
  SR (for % CD40L): 2.44
  TMP/vehicle ratio of CD40L median fluorescence intensity: 2.59
[4]; Vehicle
  % CD40L: 29.1%
  MFI (Median): 7957
[5]; Average, TMP 500 mg/kg 3x oral
  CD40L MFI values: 520.75
  Percent CD40L positive cells: 53.4%
[5]; Average, Vehicle
  CD40L MFI values: 93.65
  Percent CD40L positive cells: 1.82%
[5]; [6]
  % CD40L positive cells: increased
  CD40L values (MFI): increased
[5]; [7]
  CD40L MFI values: 608 and 542 and 505 and 428
  Percent CD40L positive cells: 61% and 56.3% and 52.2% and 44.1%
[5]; individual mice, Vehicle
  CD40L MFI values: 101 and 80.6 and 97.9 and 95.1
  Percent CD40L positive cells: 2.36% and 0.83% and 2.17% and 1.92%
